T1: porcine FAP (pFAP) extracellular domain (ECD) (pig, UniProt A5D7B7 39-760 (bovine entry))
T1 construct: also called pFAP-ECD
T1 chain: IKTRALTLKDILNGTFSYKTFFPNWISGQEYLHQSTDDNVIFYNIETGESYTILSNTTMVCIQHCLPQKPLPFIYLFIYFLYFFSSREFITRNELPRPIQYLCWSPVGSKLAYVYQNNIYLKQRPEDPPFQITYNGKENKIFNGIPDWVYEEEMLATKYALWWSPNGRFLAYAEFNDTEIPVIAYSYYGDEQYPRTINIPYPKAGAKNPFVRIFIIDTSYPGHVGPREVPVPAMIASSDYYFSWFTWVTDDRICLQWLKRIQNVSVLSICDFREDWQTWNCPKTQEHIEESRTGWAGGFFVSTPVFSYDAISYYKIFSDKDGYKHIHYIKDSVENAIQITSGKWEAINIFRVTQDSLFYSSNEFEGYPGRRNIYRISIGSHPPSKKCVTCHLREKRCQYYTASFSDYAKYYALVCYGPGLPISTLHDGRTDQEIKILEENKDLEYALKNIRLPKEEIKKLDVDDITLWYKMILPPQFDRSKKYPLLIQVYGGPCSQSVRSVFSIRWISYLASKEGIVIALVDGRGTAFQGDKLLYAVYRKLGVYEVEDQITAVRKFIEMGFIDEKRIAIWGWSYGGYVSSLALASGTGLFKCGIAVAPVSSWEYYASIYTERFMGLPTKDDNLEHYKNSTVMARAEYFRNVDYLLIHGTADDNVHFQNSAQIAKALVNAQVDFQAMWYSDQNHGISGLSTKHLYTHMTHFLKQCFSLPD

T2: ovine FAP (oFAP) extracellular domain (ECD) (sheep)
T2 construct: also called oFAP-ECD
T2 chain: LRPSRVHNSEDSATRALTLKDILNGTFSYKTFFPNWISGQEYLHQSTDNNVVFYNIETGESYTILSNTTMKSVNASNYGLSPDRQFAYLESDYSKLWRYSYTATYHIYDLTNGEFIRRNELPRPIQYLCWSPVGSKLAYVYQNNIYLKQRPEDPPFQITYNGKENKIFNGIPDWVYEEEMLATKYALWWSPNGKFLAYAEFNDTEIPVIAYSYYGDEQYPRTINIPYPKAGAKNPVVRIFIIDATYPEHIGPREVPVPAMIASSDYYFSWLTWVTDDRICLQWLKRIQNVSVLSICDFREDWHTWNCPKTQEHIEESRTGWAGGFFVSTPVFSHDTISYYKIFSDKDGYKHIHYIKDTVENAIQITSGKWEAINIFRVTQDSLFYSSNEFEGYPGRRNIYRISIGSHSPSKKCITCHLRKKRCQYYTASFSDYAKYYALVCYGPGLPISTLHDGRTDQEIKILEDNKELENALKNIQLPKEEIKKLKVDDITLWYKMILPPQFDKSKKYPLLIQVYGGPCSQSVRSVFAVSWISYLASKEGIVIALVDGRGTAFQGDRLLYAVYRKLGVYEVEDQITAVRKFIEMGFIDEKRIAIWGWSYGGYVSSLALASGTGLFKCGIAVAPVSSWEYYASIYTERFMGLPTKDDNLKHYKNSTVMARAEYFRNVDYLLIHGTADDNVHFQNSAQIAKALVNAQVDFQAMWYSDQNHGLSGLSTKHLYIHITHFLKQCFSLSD

T3: human FAP-ECD (extracellular domain) recombinant fragment containing a C-terminal His6 tag (human, UniProt Q12884 26-760, randomly biotinylated with NHS ester-activated biotin (as used on the SA chip and Streptawell plates))
T3 construct: also called biotinylated human FAP-ECD; biotinylated human FAP
T3 sequence: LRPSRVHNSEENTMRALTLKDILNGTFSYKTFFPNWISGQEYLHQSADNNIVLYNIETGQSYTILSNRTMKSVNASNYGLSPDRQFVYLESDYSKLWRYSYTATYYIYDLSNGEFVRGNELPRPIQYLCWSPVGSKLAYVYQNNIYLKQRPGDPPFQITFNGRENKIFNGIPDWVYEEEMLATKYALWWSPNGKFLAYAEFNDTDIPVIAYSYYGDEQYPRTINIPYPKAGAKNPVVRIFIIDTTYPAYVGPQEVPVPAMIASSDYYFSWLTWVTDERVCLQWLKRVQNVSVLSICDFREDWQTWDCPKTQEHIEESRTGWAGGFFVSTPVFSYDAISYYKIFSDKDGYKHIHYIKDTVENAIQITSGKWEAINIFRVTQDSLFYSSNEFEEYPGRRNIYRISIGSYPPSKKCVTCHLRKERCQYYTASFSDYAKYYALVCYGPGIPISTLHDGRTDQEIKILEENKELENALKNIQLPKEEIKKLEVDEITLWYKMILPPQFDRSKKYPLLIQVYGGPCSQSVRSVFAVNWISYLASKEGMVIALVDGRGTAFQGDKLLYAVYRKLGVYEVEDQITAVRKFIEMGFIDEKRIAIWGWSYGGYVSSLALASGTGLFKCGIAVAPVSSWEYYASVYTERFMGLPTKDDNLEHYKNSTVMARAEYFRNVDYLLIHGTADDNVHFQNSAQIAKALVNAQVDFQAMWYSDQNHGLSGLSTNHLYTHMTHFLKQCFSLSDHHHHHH

B1: anti-hen egg lysozyme antibody KSF in IgG1 format (antibody, V domains shown)
VH: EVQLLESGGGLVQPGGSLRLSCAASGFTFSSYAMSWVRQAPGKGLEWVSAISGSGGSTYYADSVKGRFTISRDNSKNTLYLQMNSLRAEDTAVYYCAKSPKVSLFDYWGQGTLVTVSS
VL: SSELTQDPAVSVALGQTVRITCQGDSLRSYYASWYQQKPGQAPVLVIYGKNNRPSGIPDRFSGSSSGNTASLTITGAQAEDEADYYCQSSPLNRLAVVFGGGTKLTVLG
notes: Negative control; It was conjugated to FITC in the immunofluorescence and ex vivo experiments; also called KSF IgG1; KSF(IgG1)
B2: anti-FAP antibody 7NP2 in IgG1 format (antibody, V domains shown)
VH: EVQLLESGGGLVQPGGSLRLSCAASGFTFSSYAMSWVRQAPGKGLEWVSAIGSVGGPTYYADSVKGRFTISRDNSKNTLYLQMNSLRAEDTAVYYCAKRLAWFDYWGQGTLVTVSS
VL: EIVLTQSPGTLSLSPGERATLSCRASQSVSSSYLAWYQQKPGQAPRLLIYGASSRATGIPDRFSGSGSGTDFTLTISRLEPEDFAVYYCQQSGKGPLTFGQGTKVEIKR
notes: also called 7NP2 IgG1; 7NP2(IgG1)

Columns and labels:
[1] = target: T1, porcine FAP (pFAP) extracellular domain …; experiment: ELISA, 120 nM pFAP-ECD coated on Maxisorp plates
Experimental: (§1) Cross-reactivity of the anti-hFAP antibodies with oFAP-ECD and pFAP-ECD was tested using ELISA. 120 nM of oFAP-ECD or pFAP-ECD was coated on Maxisorp plates overnight at 4° C. […] Specifically, the C5 antibody was employed in IgG2a format, while all other antibodies, including the 7NP2 antibody, were in IgG1 format. The differences between the IgG2a and IgG1 formats are not expected to affect binding to FAP. After 3 washes with PBS, binding of the antibodies to oFAP-ECD and pFAP-ECD was detected using an anti-human or anti-murine antibody HRP conjugate.

[2] = target: T2, ovine FAP (oFAP) extracellular domain …; experiment: ELISA, 120 nM oFAP-ECD coated, antibody at 5 ug/mL
Experimental: as §1

[3] = target: T3, human FAP-ECD (extracellular domain) …; experiment: epitope ELISA on biotinylated human FAP, co-incubated with C5 IgG2a, 5 ug/mL
Experimental: To evaluate binding, 100 nM of biotinylated human FAP were coated on Streptawell plates for 30 min at 37° C.
The C5 antibody in IgG2a format was incubated together with the 7NP2 antibody in IgG1 format, the F5 antibody in IgG1 format (WO2016/116399), the ESC11 antibody in IgG1 format (Fisher et al., (2012) Clin Cancer Res; 18(22)), or the (negative control) antibody KSF in IgG1 format for 1.5 h at room temperature at a concentration of 5 μg/mL in the antigen-coated wells. After 3 washes with PBS, binding of the antibodies to human FAP was detected using anti-human or anti-murine HRP conjugates (FIG. 7).

binding result [1]	binding result [2]	binding result [3]	Binder
no binding (tested: 5 µg/mL)	–	–	B1
–	binds	binds	B2

Source: US20240199762A1 (PHILOGEN S P A, published 2024)
